These results are taken from patent publication US6994856 (Genentech, dated 2006).

Test [1] addresses T1, ErbB4.Fc (UniProt Q15303 26-651, limits assumed).
T1 construct: also called soluble form of ErbB4 receptor; immobilized soluble ErbB4 receptor; not shown: Fc part, not described; the protein was captured on the plate by goat anti-human antibody
T1 sequence (looked up): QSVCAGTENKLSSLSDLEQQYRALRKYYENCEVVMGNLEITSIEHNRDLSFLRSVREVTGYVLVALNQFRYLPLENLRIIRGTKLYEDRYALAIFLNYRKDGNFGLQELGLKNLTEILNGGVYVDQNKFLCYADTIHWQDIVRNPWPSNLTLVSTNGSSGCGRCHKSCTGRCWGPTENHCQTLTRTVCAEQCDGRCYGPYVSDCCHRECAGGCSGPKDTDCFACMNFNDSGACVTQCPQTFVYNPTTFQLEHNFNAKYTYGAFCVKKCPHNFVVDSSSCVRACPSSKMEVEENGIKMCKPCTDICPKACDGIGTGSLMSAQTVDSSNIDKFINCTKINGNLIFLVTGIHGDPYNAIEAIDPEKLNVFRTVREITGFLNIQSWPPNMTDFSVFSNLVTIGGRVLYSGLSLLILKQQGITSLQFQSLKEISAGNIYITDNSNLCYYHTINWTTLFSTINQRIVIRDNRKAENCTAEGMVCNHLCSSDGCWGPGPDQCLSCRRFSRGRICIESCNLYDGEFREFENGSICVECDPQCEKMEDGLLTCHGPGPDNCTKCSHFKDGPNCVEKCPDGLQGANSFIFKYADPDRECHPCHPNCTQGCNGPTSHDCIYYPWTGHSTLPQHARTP
As to the kind of experiment: displacement of 125I-NRG3^EGF.Fc from immobilized ErbB4.Fc by NRG1^EGF. On the technique in general: Displacement assays read how much labelled ligand stays bound in the presence of the test substance.

Test [2] has as its target T2, human ErbB3 receptor on cells (human, UniProt P21860 20-1342).
T2 construct: whole, on cells; also called HER3; K562^erbB3 cells
Briefly: FACS on K562^erbB3 cells. Here is the method:
(§1) In FIGS. 6A–6D, parental K562 cells (FIG. 6A) or K562 cells expressing either ErbB2 receptor (K562^erbB2 cells; FIG. 6B), ErbB3 receptor (K562^erbB3 cells; FIG. 6C) or ErbB4 receptor (K562^erbB4 cells; FIG. 6D) were examined for the expression of corresponding receptors. Cells were incubated with anti-ErbB2 receptor, anti-ErbB3 receptor or anti-ErbB4 receptor antibodies as indicated before PE-conjugated secondary antibody was added. "LOG PE" represents relative fluorescent intensity and "Counts" represents cell numbers. In FIGS. 6E–6H, NRG3^EGF.Fc is shown by FACS analysis to bind to ErbB4 receptor expressing cells. Parental K562 cells (FIG. 6E), K562^erbB2 cells (FIG. 6F), K562^erbB3 cells (FIG. 6G) and K562^erbB4 cells (FIG. 6H) were incubated with or without NRG3^EGF.Fc (containing gD tag) for 1 hour, followed by anti-gD-tag primary antibody and PE-conjugated secondary antibody.
(§2) C. FACS Analysis. For each binding reaction, 5×10^5 stably transfected K562 cells were suspended in PBS/2% BSA at 4° C. for 30 min followed by incubation with 5 µg of isolated, purified NRG3^EGF.Fc (MW 90 kDa) in a volume of 0.25 ml on ice for 60 min. 1 µg of primary antibody (anti-gD or anti-ErbB receptor) and secondary PE-conjugated (CALTAG, Calif., goat anti-mouse, 1:100 dilution) antibodies were added sequentially with 30–60 min incubation time and extensive washes before each addition. […]

For test [3], the target named is T3, human ErbB2 receptor on cells (human, UniProt P04626 23-1255).
T3 construct: whole, on cells; also called HER2; K562^erbB2 cells
As to the kind of experiment: FACS on K562^erbB2 cells. Here is the method:
as §1, §2

The target in test [4] is T1, ErbB4.Fc. As to the kind of experiment: displacement of 125I-NRG3^EGF.Fc from immobilized ErbB4.Fc by unlabeled NRG3^EGF.Fc. Here is the method:
The displacement binding assays were performed in Maxisorp C 96-wells (Nunc, Naperville, Ill.). Goat anti-human antibody (Boehringer Mannheim, Germany) was coated on the plate at a concentration of 0.2 µg/well in 100 µl of 50 mM sodium carbonate buffer (pH 9.6) at 4° C., overnight. The plate was blocked by 1% BSA in TBST buffer (25 mM Tris, pH 7.5, 150 mM NaCl, 0.02% Tween 20) for 30 min at room temperature (RT). A soluble form of ErbB4 receptor was added at 15 ng/well in 1% BSA/TBST and incubated for 1.5 hr at RT. To prevent radiolabeled protein from interacting with residual goat anti-human antibodies, 1 µM of a humanized monoclonal antibody (rhuMAB HER2; Carter, P. et al. (1992) *Proc. Natl. Acad. Sci. USA* 89:4285–9) was added to the plate for 20 min and was included in the subsequent binding reaction.
The unbound material was washed by TBST extensively, and the bound radioactivity was counted on a Beckman IsoData gamma-counter (Smith-Kline Beckman, Pa.). Data was analyzed using a nonlinear regression computer program.

gD epitope tag = herpes gD epitope tag left after the gD signal sequence; Fc (human IgG1) = Fc portion of human IgG1

As a reminder, the Ki is a measure of affinity in units of concentration, obtained from inhibition or displacement.

T2 sequence (P21860 20-1342): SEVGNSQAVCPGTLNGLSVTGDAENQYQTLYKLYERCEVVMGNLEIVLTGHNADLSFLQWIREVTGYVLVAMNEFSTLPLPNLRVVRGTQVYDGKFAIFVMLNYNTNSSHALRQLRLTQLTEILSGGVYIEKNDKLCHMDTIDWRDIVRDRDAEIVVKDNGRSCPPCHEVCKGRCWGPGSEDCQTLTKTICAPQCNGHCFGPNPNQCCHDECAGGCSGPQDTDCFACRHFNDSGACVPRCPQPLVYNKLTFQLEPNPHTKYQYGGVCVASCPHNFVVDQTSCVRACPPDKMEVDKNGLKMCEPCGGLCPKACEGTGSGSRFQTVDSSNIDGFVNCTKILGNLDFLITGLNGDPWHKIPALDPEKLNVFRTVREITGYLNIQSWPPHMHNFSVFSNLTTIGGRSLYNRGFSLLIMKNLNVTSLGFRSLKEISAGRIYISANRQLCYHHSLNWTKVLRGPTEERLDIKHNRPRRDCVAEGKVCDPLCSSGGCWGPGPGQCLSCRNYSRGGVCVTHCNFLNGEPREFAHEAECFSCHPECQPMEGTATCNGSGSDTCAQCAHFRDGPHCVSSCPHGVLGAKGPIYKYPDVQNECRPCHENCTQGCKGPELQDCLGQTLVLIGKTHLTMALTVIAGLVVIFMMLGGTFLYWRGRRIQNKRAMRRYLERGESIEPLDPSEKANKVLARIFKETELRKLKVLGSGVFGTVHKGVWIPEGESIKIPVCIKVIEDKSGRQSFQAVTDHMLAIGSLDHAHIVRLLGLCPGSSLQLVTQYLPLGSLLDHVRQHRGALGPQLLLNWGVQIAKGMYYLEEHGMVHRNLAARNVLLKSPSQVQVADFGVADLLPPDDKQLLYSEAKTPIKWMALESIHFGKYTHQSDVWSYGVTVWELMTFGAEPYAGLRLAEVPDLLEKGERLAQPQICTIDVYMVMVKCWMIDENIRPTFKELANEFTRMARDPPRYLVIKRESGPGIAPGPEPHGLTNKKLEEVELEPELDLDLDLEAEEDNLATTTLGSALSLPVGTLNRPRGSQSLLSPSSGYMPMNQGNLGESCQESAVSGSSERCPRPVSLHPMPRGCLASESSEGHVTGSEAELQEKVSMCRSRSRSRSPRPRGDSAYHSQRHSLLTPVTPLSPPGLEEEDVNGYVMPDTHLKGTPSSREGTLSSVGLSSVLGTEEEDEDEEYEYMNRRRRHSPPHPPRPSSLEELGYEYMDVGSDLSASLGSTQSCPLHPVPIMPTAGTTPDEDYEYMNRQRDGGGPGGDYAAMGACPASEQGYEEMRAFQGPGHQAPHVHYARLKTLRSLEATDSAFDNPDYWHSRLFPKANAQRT

For “NRG1^EGF (from UniProt Q02297 177-244) (ligand)”, the Ki with ErbB4.Fc [1] is 1 nM.

B1: NRG3^EGF.Fc (Fc fusion)
chain: {gD epitope tag}-ERSEHFKPCRDKDLAYCLNDGECFVIETLTGSHKHCRCKEGYQGVRCDQFLPKTDSILSDP-{Fc (human IgG1)}
modifications: not fully specified
notes: Secreted from CHO cells, purified on protein A; MW 90 kDa; also called NRG3-EGF-Fc fusion protein; not shown: Fc portion of human IgG1
On to B1, for which the binding result in test [2] and in test [3] was “no binding (tested: 5 µg in a volume of 0.25 ml)” throughout. The molecule further returned an inhibitory constant (Ki) in the test with ErbB4.Fc [4] of 9 nM.
